Results on one substance are retold here after US8012471B2, “Screening and treatment methods using IGS5 enzymes of the metalloprotease family” (Abbott Healthcare Products B.V., priority 1999, dated 2011).

Format in all cases: biochemical
Test [1] concerns the target T1, IGS5 polypeptide (His6-tagged IGS5 ectodomain) (Homo sapiens, UniProt Q495T6, V306M).
T1 construct: made in house; host or cells: Spodoptera frugiperda Sf9 (baculovirus IGBV73)
T1 sequence (Q495T6 with tags, fused parts or gaps V306M): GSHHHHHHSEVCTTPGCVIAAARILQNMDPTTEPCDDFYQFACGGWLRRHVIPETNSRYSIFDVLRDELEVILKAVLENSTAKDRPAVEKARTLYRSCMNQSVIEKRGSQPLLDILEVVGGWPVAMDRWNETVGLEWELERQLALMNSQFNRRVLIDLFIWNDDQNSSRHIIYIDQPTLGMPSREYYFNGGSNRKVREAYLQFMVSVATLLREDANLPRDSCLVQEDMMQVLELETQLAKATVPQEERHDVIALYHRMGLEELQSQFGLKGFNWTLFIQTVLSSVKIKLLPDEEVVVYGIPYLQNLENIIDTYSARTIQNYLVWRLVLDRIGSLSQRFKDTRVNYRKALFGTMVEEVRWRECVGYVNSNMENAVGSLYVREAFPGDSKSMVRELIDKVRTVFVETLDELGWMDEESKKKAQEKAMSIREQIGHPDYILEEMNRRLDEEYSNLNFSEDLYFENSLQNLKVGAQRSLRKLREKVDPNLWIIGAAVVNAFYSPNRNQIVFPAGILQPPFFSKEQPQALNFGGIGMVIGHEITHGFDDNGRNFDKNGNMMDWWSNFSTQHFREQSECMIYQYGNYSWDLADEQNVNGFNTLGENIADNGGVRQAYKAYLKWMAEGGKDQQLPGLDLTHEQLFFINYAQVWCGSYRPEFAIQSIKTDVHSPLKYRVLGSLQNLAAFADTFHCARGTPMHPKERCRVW
The test is described as follows: Hydrolysis of vasoactive peptides and PACAP(1-27) by IGS5 polypeptide (HPLC). The settings on record: 100 μl assay volume; 100 ng IGS5 polypeptide; 0.5 μM substrate; 2 h, 37° C. As for the experimental part: The enzymatic activity of IGS5 polypeptides of the invention was tested with regard to the metabolism of biologically active peptides. In particular it was tested whether these IGS5 polypeptides may act on a variety of vasoactive peptides known in the state of the art e.g. such like atrial natriuretic peptide (ANP), bradykinin, big endothelin (Big ET-1), endothelin (ET-1), substance P and angiotensin-1. In the context of the present invention in particular it was tested whether the IGS5 ectodomain, which is a novel human metalloprotease, hydrolyzes said vasoactive peptides. For comparison the assay was also performed for a known member of the metalloprotease family which was described earlier as soluble secreted endopeptidase (SEP) by Ikeda, Emoto et al. (J. Biol. Chem., Vol. 274 (1999): pp. 32469-32477). Furthermore, it was tested whether the activity of IGS5 to convert a Big-ET-1 analogue (the so-called 17 aa Big-ET) may be inhibited by reference compounds that are used to determine the inhibition properties with regard to enzymes having ECE and/or NEP-characteristics. […] It was then checked whether the activity of IGS5 to convert PACAP(1-27) may be inhibited by a compound known to be a IGS5 inhibitor. The compound used to test the inhibition of IGS5-activity on PACAP(1-27) was the active metabolite of (3S,2′R)-3-{1-[2′-(ethoxycarbonyl)-4′-phenylbutyl]-cyclopentane-1-carbonylamino}-2,3,4,5-tetrahydro-2-oxo-1H-1-benzazepine-1-acetic acid (compound Ia-2 from WO 02/094176).
The enzymatic reaction was subsequently terminated by heating to 95° C. for 5 min. After centrifugation (Heraeus Biofuge B, 3 min) the supernatant was subjected to HPLC
In order to separate the remaining substrate from the cleavage products reversed phase HPLC technique was used with a CC 125/4 Nucleosil 300/5 C18 RP column and a CC 8/4 Nucleosil 100/5 C18 precolumn (commercially available from Macherey-Nagel, Duren, Germany). Thus, 60 μl of the reaction samples obtained in Example 7B were injected into the HPLC, and the column was eluted at a flow rate of 1 ml/min by applying the following gradient and solutions: […]
Peptides were detected by absorbance at 214 nm (UV spectroscopy) and/or by fluorescence with an excitation wavelength of 328 nm and an emission wavelength of 393 nm.
% Hydrolysis: For detection of substrate cleavage, the percentage of hydrolysis was calculated by directly comparing the substance peak areas in HPLC traces of the sample without addition of any IGS5 enzyme activity (blank) and of the samples with addition of IGS5 enzyme (sample). % hydrolysis was calculated on basis of the respective peak areas. % hydrolysis=100*(1−(Asample/Ablank))

Test [2] addresses NEP (Homo sapiens, UniProt P08473). The test is described as follows: PACAP(1-27) cleavage by recombinantly produced NEP. The settings on record: assay conditions as for IGS5. As for the experimental part: (§1) A quantity of 80 μl of the assay buffer, 10 μl of enzyme working solution (5 μg/ml) and 10 μl of substrate stock solution (PACAP(1-27)) were mixed in an Eppendorf vial and incubated for 120 min. at 37° C. The enzymatic reaction was subsequently terminated by heating to 95° C. for 5 min. After centrifugation (Heraeus Biofuge B, 3 min) the supernatant was subjected to HPLC
(§2) In addition, it was also analysed whether PACAP(1-27) is cleaved by other recombinantly produced metalloproteases of the M13 family, such as NEP, ECE-1 and XCE/DINE. […] The data summarized herein indicate that PACAP(1-27) might be the physiologically relevant substrate of hSEP.

The target in test [3] is T2, ECE-1 (Homo sapiens, UniProt P42892).
T2 sequence (P42892 1-770): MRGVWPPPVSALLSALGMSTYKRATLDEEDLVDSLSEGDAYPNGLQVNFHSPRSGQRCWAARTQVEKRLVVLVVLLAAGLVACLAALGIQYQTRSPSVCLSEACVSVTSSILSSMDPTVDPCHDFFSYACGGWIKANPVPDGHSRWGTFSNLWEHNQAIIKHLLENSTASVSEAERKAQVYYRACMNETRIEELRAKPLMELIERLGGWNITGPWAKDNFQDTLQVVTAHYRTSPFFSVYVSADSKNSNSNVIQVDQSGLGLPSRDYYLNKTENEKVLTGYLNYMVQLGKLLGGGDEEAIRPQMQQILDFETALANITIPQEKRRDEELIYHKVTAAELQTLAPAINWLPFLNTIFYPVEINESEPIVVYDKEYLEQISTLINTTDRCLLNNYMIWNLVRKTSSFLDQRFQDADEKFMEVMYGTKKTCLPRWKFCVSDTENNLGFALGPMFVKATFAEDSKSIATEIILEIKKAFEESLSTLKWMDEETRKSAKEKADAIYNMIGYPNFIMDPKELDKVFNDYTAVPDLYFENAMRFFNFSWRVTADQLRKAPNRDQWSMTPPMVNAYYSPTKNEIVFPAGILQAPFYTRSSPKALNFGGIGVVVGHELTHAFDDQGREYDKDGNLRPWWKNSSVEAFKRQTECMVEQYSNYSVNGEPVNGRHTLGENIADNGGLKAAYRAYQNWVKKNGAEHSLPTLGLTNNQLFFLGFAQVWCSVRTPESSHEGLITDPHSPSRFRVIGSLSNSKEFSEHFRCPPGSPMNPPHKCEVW
The test is described as follows: PACAP(1-27) cleavage by recombinantly produced ECE-1. The settings on record: assay conditions as for IGS5. The protocol: as §1, §2

The target of test [4] is T3, XCE/DINE (Homo sapiens, UniProt O95672).
T3 sequence (O95672 1-775): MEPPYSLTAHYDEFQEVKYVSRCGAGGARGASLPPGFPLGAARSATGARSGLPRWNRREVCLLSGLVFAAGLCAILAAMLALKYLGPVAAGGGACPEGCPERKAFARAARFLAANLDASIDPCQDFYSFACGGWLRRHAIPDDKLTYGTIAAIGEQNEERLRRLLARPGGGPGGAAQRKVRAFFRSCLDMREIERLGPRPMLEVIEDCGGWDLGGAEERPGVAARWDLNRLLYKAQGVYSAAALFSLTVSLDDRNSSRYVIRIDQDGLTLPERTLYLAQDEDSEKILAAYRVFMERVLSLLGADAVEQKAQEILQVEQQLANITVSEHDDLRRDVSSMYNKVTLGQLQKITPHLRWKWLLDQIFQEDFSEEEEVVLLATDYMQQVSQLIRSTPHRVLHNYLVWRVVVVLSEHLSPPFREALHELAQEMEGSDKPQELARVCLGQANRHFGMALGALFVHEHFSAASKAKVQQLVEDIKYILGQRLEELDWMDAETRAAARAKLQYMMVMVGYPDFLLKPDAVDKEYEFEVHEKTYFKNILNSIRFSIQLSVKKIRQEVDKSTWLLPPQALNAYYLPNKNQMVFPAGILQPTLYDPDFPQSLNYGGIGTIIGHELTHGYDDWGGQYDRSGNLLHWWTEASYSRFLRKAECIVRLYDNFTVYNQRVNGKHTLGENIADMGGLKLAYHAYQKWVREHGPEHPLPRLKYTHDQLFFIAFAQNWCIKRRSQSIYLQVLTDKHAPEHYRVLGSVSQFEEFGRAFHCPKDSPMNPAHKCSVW
The test is described as follows: PACAP(1-27) cleavage by recombinantly produced XCE/DINE. The settings on record: assay conditions as for IGS5. The protocol:
as §1, §2

Sequence of NEP (P08473 whole entry): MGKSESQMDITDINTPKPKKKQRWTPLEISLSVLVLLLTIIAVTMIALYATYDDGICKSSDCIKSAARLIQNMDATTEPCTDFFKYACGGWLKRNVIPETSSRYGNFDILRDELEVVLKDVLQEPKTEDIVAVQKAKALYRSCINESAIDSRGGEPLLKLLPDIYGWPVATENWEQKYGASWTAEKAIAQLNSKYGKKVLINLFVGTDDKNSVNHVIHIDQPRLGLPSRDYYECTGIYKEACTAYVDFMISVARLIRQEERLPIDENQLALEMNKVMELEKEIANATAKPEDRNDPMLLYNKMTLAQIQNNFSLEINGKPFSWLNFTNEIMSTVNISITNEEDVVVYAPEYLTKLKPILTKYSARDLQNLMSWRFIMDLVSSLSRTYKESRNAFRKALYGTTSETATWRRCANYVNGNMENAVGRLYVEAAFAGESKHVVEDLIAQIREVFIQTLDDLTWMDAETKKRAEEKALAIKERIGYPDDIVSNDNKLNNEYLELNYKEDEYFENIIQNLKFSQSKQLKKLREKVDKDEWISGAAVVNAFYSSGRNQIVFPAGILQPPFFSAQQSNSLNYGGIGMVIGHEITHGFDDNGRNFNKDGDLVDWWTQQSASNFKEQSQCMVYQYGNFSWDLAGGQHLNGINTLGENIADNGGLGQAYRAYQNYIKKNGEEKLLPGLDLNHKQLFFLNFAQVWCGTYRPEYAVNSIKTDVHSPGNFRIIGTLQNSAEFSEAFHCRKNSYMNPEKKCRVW

With “His-Ser-Asp-Gly-Ile-Phe-Thr-Asp-Ser-Tyr-Ser-Arg-Tyr-Arg-Lys-Gln-Met-Ala-Val-Lys-Lys-Tyr-Leu-Ala-Ala-Val-Leu [PACAP (1-27)]”, the “% Hydrolysis by IGS5 Polypeptide” value in test [1] is 69%. For the same substance, in test [2], the “Cleavage of PACAP(1-27) by NEP” value is reported as “None of the aforementioned enzymes was able to cleave”. Moreover, the “Cleavage of PACAP(1-27) by ECE-1” value in test [3] is given as “None of the aforementioned enzymes was able to cleave”. Moreover, the “Cleavage of PACAP(1-27) by XCE/DINE” value in test [4] was “None of the aforementioned enzymes was able to cleave”.
